# Source: patent publication US8163516B2 (Algenol Biofuels Inc., priority 2008, dated 2012)
# Read-outs that look alike come from different tables or passages of the source.
# B1: Synechocystis sp. PCC 6803 alcohol dehydrogenase SynAdh (slr1192, BAA18840), wild type, SEQ ID NO:4, overexpressed, crude extract (Synechocystis sp. PCC 6803 … (protein)
# chain: MIKAYAALEANGKLQPFEYDPGALGANEVEIEVQYCGVCHSDLSMINNEWGISNYPLVPGHEVVGTVAAMGEGVNHVEVGDLVGLGWHSGYCMTCHSCLSGYHNLCATAESTIVGHYGGFGDRVRAKGVSVVKLPKGIDLASAGPLFCGGITVFSPMVELSLKPTAKVAVIGIGGLGHLAVQFLRAWGCEVTAFTSSARKQTEVLELGAHHILDSTNPEAIASAEGKFDYIISTVNLKLDWNLYISTLAPQGHFHFVGVVLEPLDLNLFPLLMGQRSVSASPVGSPATIATMLDFAVRHDIKPVVEQFSFDQINEAIAHLESGKAHYRVVLSHSKN
# B2: Synechocystis sp. PCC 6803 alcohol dehydrogenase SynAdh (slr1192, BAA18840), wild type, SEQ ID NO:4, purified (Synechocystis sp. PCC 6803 substr. Kazusa) (protein)
# chain: B1 chain
# How the values were obtained:
# [1] = target: T1, Synechocystis sp. PCC 6803 alcohol dehydrogenase SynAdh (slr1192, BAA18840), wild type, SEQ ID NO:4, overexpressed, crude extract (Synechocystis sp. PCC 6803, UniProt P74721); test: Acetaldehyde reduction by crude extract of Synechocystis overexpressing SynAdh, varied cosubstrate (Lineweaver-Burk); format: biochemical; details: pH 6.1
# T1 construct: PCC 6803; crude cell extract
# T1 sequence (P74721 1-336): B1 chain
# Experimental: The Adh enzyme from Synechocystis was further characterized by preparing crude cell extracts from Synechocystis PCC6803 overexpressing SynAdh.
# For preparation of crude extracts, cells were pelleted, dissolved in buffer supplemented with 1 mM DTT and broken (beadbeater, 2×10 min, glass beads with 100 μm diameter). The supernatant of a centrifugation (15 min, 14000 rpm, 4° C., Micro 200R, Hettich) was used for the experiments.
# The Adh activity was measured as rate of the increase of the absorbance at 340 nm. […] The reaction was started by addition of an acetaldehyde solution to a final concentration of 0.125 mM and the rate of decrease of the absorbance at 340 nm was measured. […] Protein was determined by the method of Lowry.
# Measurements were performed at pH 6.1.
# [2] = system: Zymomonas mobilis ADH II (ZmAdhII); details: literature values; ranges given jointly for ADH I and ADH II; cited from earlier work
# [3] = system: Zymomonas mobilis ADH I (ZmAdhI, AAV89860), SEQ ID NO:2; details: literature values; ranges given jointly for ADH I and ADH II; cited from earlier work
# [4] = system: Zymomonas mobilis ADH II (with Pdc) in intact Synechocystis PCC 6803 cells, strain 6803-pVZ-PisiA (pVZ-PisiA-Pdc-AdhII); test: Ethanol production by intact cells of strain 6803-pVZ-PisiA after addition of acetaldehyde (Lineweaver-Burk); format: cell-based, Synechocystis PCC 6803 (Zymomonas mobilis AdhII)
# Experimental: Methods: Synechocystis PCC 6803 wild type and the transgenic strain “6803-pVZ-PisiA”, corresponding to the above described Synechocystis pVZ-PisiA-Pdc-AdhII, were washed twice with BG11 (centrifugation 15 min, 4500 rpm, 4° C.; Rotina 420R, Hettich) and redissolved in BG11. Aliquots of 2 ml were spiked with acetaldehyde. The assays were incubated at room temperature under illumination. Samples of 250 μl were removed in defined time intervals (5 min or 10 min) and centrifuged (3 min, 14000 rpm, room temperature, Micro 200R, Hettich).
# Ethanol was quantified with a described protocol. The method is based on oxidation of ethanol catalyzed by alcohol dehydrogenase (Sigma, Adh of S. cerevisiae). NADH formed in this reaction, reacts with the PMS/MTT reagent to a dye.
# OD750 of the culture was 0.56.
# This experiment was repeated with a different culture of strain 6803-pVZ-PisiA of OD750 of 1.353 and a chlorophyll concentration of 4.6 μg/ml. Similar results were obtained.
# [5] = system: Zymomonas mobilis ADH II, crude extract of Synechocystis strain 6803-pVZ-PisiA (pVZ-PisiA-Pdc-AdhII); test: Adh activity of crude extract of strain 6803-pVZ-PisiA in the direction of ethanol formation (Lineweaver-Burk); format: biochemical; details: for Km: read-out: Km for acetaldehyde
# Experimental: For preparation of crude extracts, cells were harvested, washed with 40 mM MES/Tris (pH 6.5), 1 mM DTT and broken (beadbeater, 2×10 min). The supernatant of a centrifugation (15 min, 14000 rpm, 4° C., Micro 200R, Hettich) was used for the determination of Adh activity in cells.
# The initial velocity was calculated from the dE/min at 340 nm.
# In order to compare the dates acquired with intact cells, the kinetic constants of alcohol dehydrogenase in crude extracts of strain 6803-pVZ-PisiA were measured. […] A graphical representation of the results obtained is given in form of a “Lineweaver-Burk” plot (FIG. 8).
# In a second experiment the Adh activity was measured at pH 7.5. NADH and NADPH were used as co-substrates.
# [6] = substrate: NC(=O)C1=CN([C@@H]2O[C@H](COP(=O)(O)OP(=O)(O)OC[C@H]3O[C@@H](n4cnc5c(N)ncnc54)[C@H](OP(=O)(O)O)[C@@H]3O)[C@@H](O)[C@H]2O)C=CC1; test: cells, lysate or membranes; details: other: acetaldehyde reduction, crude extract, pH 6.1
# [7] = substrate: NC(=O)C1=CN([C@@H]2O[C@H](COP(=O)(O)OP(=O)(O)OC[C@H]3O[C@@H](n4cnc5c(N)ncnc54)[C@H](O)[C@@H]3O)[C@@H](O)[C@H]2O)C=CC1; test: cells, lysate or membranes; details: other: acetaldehyde reduction, crude extract, pH 6.1
# [8] = substrate: CC=O; test: Acetaldehyde reduction (forward reaction) by purified SynAdh, Km determination; format: biochemical, Synechocystis sp. PCC 6803; details: other: acetaldehyde reduction
# Experimental: (§1) Fraction 2 of the purification was used for the measurement of the kinetic parameters of the SynAdh as described in the following.
# (§2) Both ethanol oxidation and acetaldehyde reduction were analyzed at different pH values. Experiments were made at pH 7.5 in presence of high concentrations of KCl in order to mimic the intracellular conditions.
# For measurements at pH 6.0 HEPES/KOH was substituted by 30 mM MES/KOH (pH 6.0), KCl was omitted.
# (§3) The Km and vmax values of SynAdh for the different substrates were determined with Lineweaver-Burk plots.
# [9] = substrate: NC(=O)c1ccc[n+]([C@@H]2O[C@H](COP(=O)([O-])OP(=O)(O)OC[C@H]3O[C@@H](n4cnc5c(N)ncnc54)[C@H](OP(=O)(O)O)[C@@H]3O)[C@@H](O)[C@H]2O)c1; test: purified protein, by the assay type; details: other: ethanol oxidation
# [10] = substrate: CCO; test: purified protein, by the assay type; details: other: ethanol oxidation
# [11] = substrate: NC(=O)C1=CN([C@@H]2O[C@H](COP(=O)(O)OP(=O)(O)OC[C@H]3O[C@@H](n4cnc5c(N)ncnc54)[C@H](OP(=O)(O)O)[C@@H]3O)[C@@H](O)[C@H]2O)C=CC1; test: purified protein, by the assay type; details: other: acetaldehyde reduction
# [12] = substrate: NC(=O)C1=CN([C@@H]2O[C@H](COP(=O)(O)OP(=O)(O)OC[C@H]3O[C@@H](n4cnc5c(N)ncnc54)[C@H](O)[C@@H]3O)[C@@H](O)[C@H]2O)C=CC1; test: purified protein, by the assay type; details: other: acetaldehyde reduction
# [13] = substrate: NC(=O)c1ccc[n+]([C@@H]2O[C@H](COP(=O)([O-])OP(=O)(O)OC[C@H]3O[C@@H](n4cnc5c(N)ncnc54)[C@H](O)[C@@H]3O)[C@@H](O)[C@H]2O)c1; test: purified protein, by the assay type; details: other: ethanol oxidation
# Experimental: as §1, §2
# For measurements at pH 8.5 HEPES/KOH was substituted by 30 mM Tris/HCl (pH 8.5), KCl was omitted.
# as §3
# [14] = pH 7.5, NADH 0.25 M or NADPH 0.21 M
molecule,measurement,setting,value
"NC(=O)C1=CN([C@@H]2O[C@H](COP(=O)(O)OP(=O)(O)OC[C@H]3O[C@@H](n4cnc5c(N)ncnc54)[C@H](O)[C@@H]3O)[C@@H](O)[C@H]2O)C=CC1 [NADH, reduced nicotinamide-adenine dinucleotide]",vmax for NADH,[1],1.6 μMol min^−1 ml^−1 crude extract
CCO [ethanol],Km,[2],140 µM
same,Km,[3],24 µM
CC=O [acetaldehyde],Km,[4]; OD750 0.56,18 µM
same,Vmax,[4]; OD750 0.56,3.2 µmol/L/min
same,Vmax,"[4]; repeat, OD750 1.353",4.35 µmol/L/min
same,Km,"[4]; repeat, OD750 1.353, chlorophyll 4.6 μg/ml",25 µM
same,Vmax,"[4]; repeat, using chlorophyll as reference",0.95 µmol/L/mg
same,Vmax,"[5]; pH 6.5, NADH in excess",7.2 μMol L^−1 mg^−1 chlorophyll
same,Km,"[5]; pH 6.5, NADH in excess",45 µM
same,Vmax,[5]; [14],0.89 μMol L^−1 mg^−1 chlorophyll
same,Km,[5]; [14],100 µM
"NC(=O)c1ccc[n+]([C@@H]2O[C@H](COP(=O)([O-])OP(=O)(O)OC[C@H]3O[C@@H](n4cnc5c(N)ncnc54)[C@H](O)[C@@H]3O)[C@@H](O)[C@H]2O)c1 [NAD^+, nicotinamide-adenine dinucleotide]",Km,[2],110 µM
same,Km,[3],73 µM
NC(=O)C1=CN([C@@H]2O[C@H](COP(=O)(O)OP(=O)(O)OC[C@H]3O[C@@H](n4cnc5c(N)ncnc54)[C@H](OP(=O)(O)O)[C@@H]3O)[C@@H](O)[C@H]2O)C=CC1 [NADPH],vmax for NADPH,[1],0.4 μMol min^−1 ml^−1 crude extract
B1,Km,[6],15 µM
same,Km,[7],1000 µM
B2,Km,[8]; pH 6.0,200 μM μM
same,Km,"[8]; pH 7.5, 150 mM KCl, pH 7.5",180 μM μM
same,Km,[8]; purified enzyme,200 µM
same,Km,"[9]; pH 7.5, 150 mM KCl, pH 7.5",15 μM μM
same,Km,[9]; pH 8.5,15 μM μM
same,Km,"[10]; pH 7.5, 150 mM KCl, pH 7.5",23 mM mM
same,Km,[10]; pH 8.5,59 mM mM
same,Km,[11]; pH 6.0,20 μM μM
same,Km,"[11]; pH 7.5, 150 mM KCl, pH 7.5",15 μM μM
same,Km,[11]; purified enzyme,15 µM
same,Km,"[12]; pH 7.5, 150 mM KCl, pH 7.5",1000 μM μM
same,Km,[12]; purified enzyme,1000 µM
same,Km,"[13]; pH 7.5, 150 mM KCl, pH 7.5",10 mM mM
same,Km,[13]; pH 8.5,10 mM mM
